Results: paper PMC11570956
Where “and” joins values, the source holds several entries; their conditions need not be identical. Equal values may be shown once.

Assays:
Experiment in all cases: fluorescence anisotropy
[1] = tested on: eIF4GI557-1599;eIF4A;eIF4E;eIF4B (Homo sapiens;Homo sapiens?;Homo sapiens;Homo sapiens); conditions: 20 mM HEPES-KOH pH 7.6, 200 mM KCl, 1 mM MgCl2, 25 ± 0.5 °C; 10 nM labeled RNA; co-factors 1 µM eIF4A, 1 µM eIF4E, 1 mM ATP (2.5 µM proteins also stated)
[2] = tested on: eIF4GI557-1599 (Homo sapiens); conditions: 20 mM HEPES-KOH pH 7.6, 200 mM KCl, 1 mM MgCl2, 25 ± 0.5 °C; 10 nM labeled RNA; co-factors 1 µM eIF4A, 1 µM eIF4E, 1 mM ATP (2.5 µM proteins also stated)
[3] = tested on: eIF4GI682-1599;eIF4E (Homo sapiens;Homo sapiens); conditions: 20 mM HEPES-KOH pH 7.6, 200 mM KCl, 1 mM MgCl2, 25 ± 0.5 °C; 10 nM labeled RNA; co-factors 1 µM eIF4A, 1 µM eIF4E, 1 mM ATP (2.5 µM proteins also stated)
[4] = tested on: eIF4A; conditions: 20 mM HEPES-KOH pH 7.6, 200 mM KCl, 1 mM MgCl2, 25 ± 0.5 °C; 10 nM labeled RNA; co-factors 1 µM eIF4A, 1 µM eIF4E, 1 mM ATP (2.5 µM proteins also stated)
[5] = tested on: eIF4GI682-1599;eIF4A (Homo sapiens;Homo sapiens?); conditions: 20 mM HEPES-KOH pH 7.6, 200 mM KCl, 1 mM MgCl2, 25 ± 0.5 °C; 10 nM labeled RNA; co-factors 1 µM eIF4A, 1 µM eIF4E, 1 mM ATP (2.5 µM proteins also stated)
[6] = tested on: eIF4GI557-1599;eIF4A;eIF4B (Homo sapiens;;Homo sapiens); conditions: 20 mM HEPES-KOH pH 7.6, 200 mM KCl, 1 mM MgCl2, 25 ± 0.5 °C, 10 nM labeled RNA, co-factors 1 µM eIF4A, 1 µM eIF4E, 1 mM ATP (2.5 µM proteins also stated)
[7] = tested on: eIF4GI682-1599;eIF4A;eIF4E (Homo sapiens;;Homo sapiens); conditions: 20 mM HEPES-KOH pH 7.6, 200 mM KCl, 1 mM MgCl2, 25 ± 0.5 °C; 10 nM labeled RNA; co-factors 1 µM eIF4A, 1 µM eIF4E, 1 mM ATP (2.5 µM proteins also stated)
[8] = tested on: eIF4GI557-1599;eIF4E (Homo sapiens;Homo sapiens); conditions: 20 mM HEPES-KOH pH 7.6, 200 mM KCl, 1 mM MgCl2, 25 ± 0.5 °C; 10 nM labeled RNA; co-factors 1 µM eIF4A, 1 µM eIF4E, 1 mM ATP (2.5 µM proteins also stated)
[9] = tested on: eIF4GI682-1599 (Homo sapiens); conditions: 20 mM HEPES-KOH pH 7.6, 200 mM KCl, 1 mM MgCl2, 25 ± 0.5 °C; 10 nM labeled RNA; co-factors 1 µM eIF4A, 1 µM eIF4E, 1 mM ATP (2.5 µM proteins also stated)
[10] = tested on: eIF4GI557-1599;eIF4A;eIF4E (Homo sapiens;;Homo sapiens); conditions: 20 mM HEPES-KOH pH 7.6, 200 mM KCl, 1 mM MgCl2, 25 ± 0.5 °C, 10 nM labeled RNA, co-factors 1 µM eIF4A, 1 µM eIF4E, 1 mM ATP (2.5 µM proteins also stated)
[11] = tested on: eIF4GI557-1599;eIF4A (Homo sapiens;Homo sapiens?); conditions: 20 mM HEPES-KOH pH 7.6, 200 mM KCl, 1 mM MgCl2, 25 ± 0.5 °C, 10 nM labeled RNA, co-factors 1 µM eIF4A, 1 µM eIF4E, 1 mM ATP (2.5 µM proteins also stated)
[12] = tested on: eIF4B (Homo sapiens); conditions: 20 mM HEPES-KOH pH 7.6, 200 mM KCl, 1 mM MgCl2, 25 ± 0.5 °C; 10 nM labeled RNA; co-factors 1 µM eIF4A, 1 µM eIF4E, 1 mM ATP (2.5 µM proteins also stated)

| Substance | Kd [1] [µM] | Kd [2] [µM] | Kd [3] [µM] | Kd [4] | Kd [5] | Kd [6] [µM] | Kd ([6]; AMP-PNP) [µM] | Kd ([6]; no nucleotide) [µM] | Kd [7] | Kd [8] [µM] | Kd [9] [µM] | Kd [10] [µM] | Kd ([10]; ADP) [µM] | Kd ([10]; no nucleotide) [µM] | Kd [11] [µM] | Kd ([11]; no nucleotide) [µM] | Kd [12] [µM] |
| --- | --- | --- | --- | --- | --- | --- | --- | --- | --- | --- | --- | --- | --- | --- | --- | --- | --- |
| FGF-9 5'UTR (uncapped) | 0.014 | 0.014 | 0.11 | 0.667 µM and 0.115 µM | 0.026 µM and 0.016 µM | 0.019 | 0.02 | 0.024 | 0.02 µM and 0.03 µM | 0.016 | 0.12 | 0.018 | 0.013 | 0.015 | 0.014 | 0.016 | 0.038 |
| HIF-1α 5'UTR (uncapped) | 0.019 | 0.05 | 0.142 | 0.252 µM and 0.028 µM | 0.017 µM and 0.02 µM | 0.017 | 0.014 | 0.012 | 0.021 µM and 0.016 µM | 0.015 | 0.139 | 0.022 | 0.026 | 0.014 | 0.013 | 0.017 | 0.054 |
